Experimental data as given in patent US20130035289A1, “PHARMACEUTICAL COMPOSITION FOR TREATMENT OF THROMBOSIS-RELATED DISEASES COMPRISING A FRAGMENT OF PROLACTIN (PRL)-GROWTH HORMONE (GH)-PLACENTAL LACTOGEN (PL)-FAMILY PROTEIN” (UNIVERSITE DE LIEGE, priority 2010, published 2013).

Key:
[1] = target: T1, PAI-1 (Homo sapiens, UniProt P05121); assay: Inhibition of PAI-1 anti-proteolytic activity, uPA/plasminogen chromogenic (colorimetric) assay; format: biochemical; conditions: for PAI-1 activity in vitro (chromogenic assay): yes/no, table title: Peptide fragments inhibiting PAI-1
T1 construct: gift of Pr; P. Declerck
T1 sequence (P05121 24-402): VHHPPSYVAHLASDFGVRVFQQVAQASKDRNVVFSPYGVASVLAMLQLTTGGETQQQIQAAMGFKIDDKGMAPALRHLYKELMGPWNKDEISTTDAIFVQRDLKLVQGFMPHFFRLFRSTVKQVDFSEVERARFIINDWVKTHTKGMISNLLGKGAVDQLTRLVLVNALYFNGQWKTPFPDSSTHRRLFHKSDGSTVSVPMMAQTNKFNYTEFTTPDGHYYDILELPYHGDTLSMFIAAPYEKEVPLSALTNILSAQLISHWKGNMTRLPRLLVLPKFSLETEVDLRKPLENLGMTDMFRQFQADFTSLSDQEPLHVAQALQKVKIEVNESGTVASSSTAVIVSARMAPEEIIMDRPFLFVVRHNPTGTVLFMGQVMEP
Description: The main physiological function of PAI-1 is to inhibit uPA and tPA proteolytic activity. […] A chromogenic substrate for plasmin (Spectrozyme PL: 0.5 mM. American Diagnostica INC) in PBS was added to the mixture in 96-well microtitration plates and kept at room temperature. The release of free p-nitro-aniline from the chromogenic substrate was measured spectrophotometrically. The activity of plasmin was determined as the absorbance at 405 nm.

[2] = target: T1, PAI-1; assay: In vitro clot lysis assay in pooled normal human plasma with added PAI-1 and tPA; format: biochemical; conditions: peptides 25 μM, human plasma; for ablility to induce clot lysis: yes/no, added PAI-1, tPA
Description: Clot lysis was performed as follows: pooled normal plasma were used in citrated tube. Recombinant wild type PAI-1 was incubated in the presence or in the absence of 16K hPRL (3 μM), 14K hGH (3 μM) or different peptides (25 μM) for 10 min at 37° C., before to be added to diluted plasma in tris tween buffer (75 μl of plasma in 200 μl of 10 mM TRIS pH 7.5, 0.01% tween 20), followed by a second incubation for 10 min at 37° C. tPA was added to each tube at the end to reach a final volume of […]. Aliquots from each tube (80 μl) were added in duplicate to 96 wells, each containing 20 μl CaCl2 to give the following final concentration per well of 10 mM. Clot formation and dissolution were monitored at RT measuring turbidity at 405 nm in 5 min intervals.

[3] = target: T1, PAI-1; assay: Casein zymography of plasmin generation by uPA in presence of PAI-1; format: biochemical
Description: (a) Proteolytic activity of uPA on plasminogen (Plg) in different conditions was determined by colorimetric assay (absorbance at 405 nm) as described in Methods. […] The data represent the means±SD of duplicate samples and experiment was repeated at least three times. (b) Casein zymography showing Plg and plasmin (Pln) generation by uPA in the presence of PAI-1 alone or in combination with 14K GH or 22K GH.
For this test casein (1 mg/ml) was incorporated in 10% SDS polyacrylamide gels. Aliquots of in vitro reaction including recombinant proteins were mixed with loading buffer (10% SDS, 4% Sucrose, 0.25M Tris-Hcl pH6-8, 0.1% Bromophenol blue). After electrophoresis, SDS was removed from the gel by two washes (30 min each) of 100 mM glycine, 2.5% Triton buffer (pH 8.0) stained with 0.1% coomassie brilliant bleu, and destained in 20% methanol/10% acetic acid.

[4] = target: T2, PAI-1 (Mus musculus, UniProt P22777); assay: Murine thromboembolism model (tPA/thromboplastin); format: in vivo; conditions: POPRL 7-12 10 mg/kg i.v. 5 min before t-PA/thromboplastin; control 50; p=0.3
T2 construct: from tissue; host or cells: BalbC Njrj mice, in vivo (blood)
T2 sequence (P22777 23-402): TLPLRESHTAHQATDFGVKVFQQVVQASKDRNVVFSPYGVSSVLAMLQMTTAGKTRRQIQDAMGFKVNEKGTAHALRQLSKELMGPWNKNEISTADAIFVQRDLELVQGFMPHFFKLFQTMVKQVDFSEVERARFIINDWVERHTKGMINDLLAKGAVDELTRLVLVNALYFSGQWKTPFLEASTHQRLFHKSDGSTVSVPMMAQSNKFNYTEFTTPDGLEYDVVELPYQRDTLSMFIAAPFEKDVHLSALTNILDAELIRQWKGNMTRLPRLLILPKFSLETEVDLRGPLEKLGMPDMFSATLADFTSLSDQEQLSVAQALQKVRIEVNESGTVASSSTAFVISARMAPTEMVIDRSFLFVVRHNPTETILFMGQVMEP
Description: BalbC Njrj Mice were used and anesthetised with ketamine/xylazine throughout the whole experiment. Recombinant 16K PRL and adenovirus vectors 16K-Ad and Null-Ad were produced as described above. The animal experiment protocol used was approved by the Institutional Ethics Committee of the University of Liege.
Recombinant 16K PRL (1 mg/kg) or POPRL 7-12 (10 mg/kg) were administrated via the vein to BalbC Njrj mice of approximately 15-18 g. Five minutes after the injection, a suboptimal concentration of t-PA (0.1 mg/kg) was injected immediately followed by i.v. injection of thromboplastin (3.3 μg/kg) to evoke thromboembolism. Mice were evaluated after 15 min for survival. For experiment with adenovirus vectors, mice were injected into the tail vein with 10^9 pfu of 16K hPRL adenovirus (16K-Ad) and their corresponding control (Null-Ad) 5 days before the injection a suboptimal concentration of t-PA (0.1 mg/kg) injected immediately followed by i.v. injection of thromboplastin (3.3 μg/kg).
The fisher test was used to determine the significance of the differences in the mortality assays.

| PAI-1 activity in vitro (chromogenic assay) [1] | ablility to induce clot lysis [2] | inhibition of plasmin (Pln) generation in the presence of PAI-1 [3] | inhibition of PAI-1 function to inhibit uPA and tPA proteolytic activity ([1]; uPA, bovine plasminogen, PAI-1, absorbance 405 nm) | Substance | mortality [4] [%] | clot lysis in the presence of added PAI-1 [2] |
| --- | --- | --- | --- | --- | --- | --- |
| yes | yes |  |  | RISLLL [POGH 3-8] |  |  |
|  |  | no effect | did not show any inhibition | 22K GH: the full fragment (full-length) growth hormone [reference compound] |  |  |
| yes | yes |  |  | LLRISLLLIQSWLE [POGH] |  |  |
| yes | yes |  |  | LLRISL [POGH 1-6] |  |  |
| yes | yes |  |  | IQSWLE [POGH 9-14] |  |  |
| yes | yes |  |  | SLLLIQ [POGH 5-10] |  | as effective as the tilted peptide of GH: POGH |
| yes | yes |  |  | IVSILR [POPRL 5-10] |  |  |
| yes | yes |  |  | FLSLIV [POPRL 1-6] |  |  |
| no | no |  |  | LSQILSSLIQSWLE [POGHmut, reference compound] |  |  |

| Substance | PAI-1 activity in vitro (chromogenic assay) [1] | ablility to induce clot lysis [2] | inhibition of plasmin (Pln) generation in the presence of PAI-1 [3] | inhibition of PAI-1 function to inhibit uPA and tPA proteolytic activity ([1]; uPA, bovine plasminogen, PAI-1, absorbance 405 nm) | mortality [4] [%] | clot lysis in the presence of added PAI-1 [2] |
| --- | --- | --- | --- | --- | --- | --- |
| SILRSW [POPRL 7-12] | yes | yes |  |  | 30 |  |
